{"source": "patent US12618044B2", "about": "“Specification of functional cranial placode derivatives from human pluripotent stem cells” (MEMORIAL SLOAN-KETTERING CANCER CENTER, priority 2013, dated 2026)", "molecules": {"B1": {"name": "FGF8: caudalizing factor / pituitary patterning factor (protein, UniProt P55075 23-233, looked up)", "Fibroblast growth factor 8": "QEGPGRGPALGRELASLFRAGREPQGVSQQHVREQSLVTDQLSRRLIRTYQLYSRTSGKHVQVLANKRINAMAEDGDPFAKLIVETDTFGSRVRVRGAETGLYICMNKKGKLIAKSNGKGKDCVFTEIVLENNYTALQNAKYEGWYMAFTRKGRPRKGSKTRQHQREVHFMKRLPRGHHTTEQSLRFEFLNYPPFTRSLRGSQRTWAPEPR"}, "B2": {"name": "BMP4: recombinant bone morphogenetic protein-4, activator of BMP signaling (protein, UniProt P12644 293-408, looked up)", "Bone morphogenetic protein 4": "SPKHHSQRARKKNKNCRRHSLYVDFSDVGWNDWIVAPPGYQAFYCHGDCPFPLADHLNSTNHAIVQTLVNSVNSSIPKACCVPTELSAISMLYLDEYDKVVLKNYQEMVVEGCGCR"}}, "assay_type_in_all_cases": "cell-based, human", "key": {"SIX1::GFP cells [1]": {"test_system": "SIX1::GFP cells", "assay": "High throughput screen for compounds that promote placode induction", "conditions": "added at day 3, imaged at day 6", "description": "High throughput screen for compounds that promote placode induction: SIX1::GFP cells were cultured according to the PIP-E6 protocol. 1280 test compounds were screened for their ability to enhance placode induction. Each test compound was added to the cell culture media at day 3, and cells were imaged to determine the level of placode induction at day 6. (FIG. 60)."}, "pre-placode cells": {"test_system": "pre-placode cells", "assay": "Lens placode specification (PITX3 qRT-PCR)", "conditions": "added days 7-11, read at day 16", "description": "The impact of four developmental signaling pathways on lens placode specification was tested by using activators and inhibitors of BMP, FGF, WNT, and Hedgehog signaling. To quantify the induction of lens placode fate, the lens precursor marker PITX3 expression was monitored at day 16 of differentiation (FIG. 37B). […] A role for BMPs and FGFs has been previously proposed in developmental studies in the chick (Sjödal et al., 2007). […] The characteristic layering of lens fibers (FIG. 36H, right panel) mimicked the structural properties of developing lens in vivo."}, "hESC": {"test_system": "hESC", "assay": "Placode induction from hESC (N-SB versus PIP, SIX1 expression)", "description": "A timed withdrawal of the BMP inhibitor Noggin during N-SB differentiation was also tested to determine if placodal fates could be induced via derepressing endogenous BMP signaling. A time course analysis was performed during which Noggin was removed at different time points of the N-SB protocol (FIG. 28A).\nWithdrawal of the BMP inhibitor noggin during N-SB differentiation may enhance the emergence of placodal fates by de-repressing endogenous BMP signaling. To this end, a time course study was performed by removing noggin at different time points of the NSB protocol (FIG. 11A) while monitoring the induction of placodal marker (FIG. 11B) trophoectodermal, neurectodermal by qRT-PCR analysis at day 11 of differentiation. Withdrawal of noggin at day 2 or 3 of differentiation yielded efficient induction of Six1 while noggin withdrawal at day 1 of differentiation lead to the induction of Eya1 in the absence of Six1 expression.\nNeural Induction and placode induction: Feeder-free neural induction was carried out as previously described (Chambers et al., 2009). Briefly, hESCs cultures were disaggregated using accutase for 20 minutes, washed using hESCs media and pre-plated on gelatin for 1 hour at 37° C. in the presence of ROCK inhibitor to remove MEFs. The non-adherent hESCs were washed and plated on matrigel at a density of 60,000 cells/cm2 on matrigel (BD) coated dishes in MEF conditioned hESCs media (CM) spiked with 10 ng/mL of FGF-2 and ROCK-inhibitor. The ROCK inhibitor was withdrawn after 24 hours, and hESCs were allowed to expand in CM for 2 days or until they were 95% confluent. The initial differentiation media conditions included knock out serum replacement (KSR) media with 10 μM TGF-β inhibitor (SB431542, Tocris) and 250 ng/mL of Noggin (R&D). Upon day 5 of differentiation, increasing amounts of N2 media (25%, 50%, and 75%) were added to the KSR media every two days while maintaining […] of Noggin and TGF-β inhibitor. Similar results could be obtained when using KSR-free conditions (E6 medium (Chen et al., 2011)) following adjustments in BMP signaling; data not shown). For placode induction, Noggin was removed at day3 of differentiation. In some experiments, BMP-4 (R&D 50 ng/ml), Noggin (R&D 250 ng/ml), DKK-1 (R&D 100 ng/ml), FGF8 (R&D 50 ng/ml), SU5402 (Tocris 10 μM), Wnt-3a (R&D 50 ng/ml), DAPT (Tocris, 10 μM), CHIR99021 (Stemgent, 3 μM), Cyclopamine (Tocris, 10 μM), Sonic Hedgehog (C25II-R&D 100 ng/ml), and Purmorphamine (Stemgent, 1 μM), were added.\nMicroscopy, antibodies, and flow cytometry: Cells were fixed using 4% paraformaldehyde for 15 minutes, washed with PBS, permeabilized using 0.3% Triton X in PBS, and blocked using 1% BSA. Primary antibodies used for microscopy included PAX6 (Covance, DSHB), TUJ1 (Covance), BRN3A (Chemicon), AP2a (DSHB), HNK1 (Sigma), PAX3 (DSHB), SIX1 (ABR, Atlas), ISL1 (DSHB), PERIPHERIN (Santa Cruz), GSU (gift A. McNeilly), CRYAB (Chemicon), DACH1 (Proteintech), EYA1 (gift Kawakami), E-CADHERIN (Abcam), FSH (gift A. McNeilly), GATA2 (Abcam), chick GFP (Abcam), hNCAM (Santa Cruz), GLUTAMATE (Sigma), KRT14 (Labvision), SIX6 (Atlas), LHX3 (Abcam), OVOL2 (Aviva), TFAP2A (DSHB), FOXG1 (gift E. Lai), hCA (Stem Cells), and Ki67 (Sigma). Appropriate Alexa 488, Alexa 568, Alexa 647 secondary antibodies (Molecular Probes) and/or DAPI counterstaining was used for visualization. For Flow Cytometry, cells were mechanically dissociated after exposure to accutase for 20 min at 25° C. To eliminate dead cell populations in FACS analysis, we used DAPI or 7-AAD according to manufacturer's recommendation. Cells were analyzed using FACScan (Becton Dickinson) and FlowJo software (Tree Star, Inc.)."}, "SIX1::GFP cells [2]": {"test_system": "SIX1::GFP cells", "assay": "PIP-E6 pituitary induction and hormone release", "conditions": "for number of putative pituitary stem cells (Ki67 and Sox2): days 6-14", "description": "Induction of anterior pituitary gland cells: Pituitary placode cells were induced by culturing SIX1::GFP cells according to the PIP-E6 protocol, wherein pituitary factors SHH, FGF8, FGF10 and/or hypothalamus CM were supplemented in the culture media from days 6-15.\nInduction of anterior pituitary gland cells: SIX1::GFP hPSCs were cultured according to a modified PIP-E6 protocol, wherein pituitary factors such as FGF8, FGF10 or SHH, etc., were included in the culture media from days 6-14. Cells were sorted based on expression of SIX1::GFP, and were replated at a concentration of 10,000 cells/cm^2 on PO/L/F, and were incubated with small molecule/growth factors for 2 weeks. (FIG. 68). […] (FIG. 69)."}, "hESC derived FP": {"test_system": "hESC derived FP", "assay": "A/P respecification of hESC derived FP by caudalizing factors", "description": "For MS5 induction, established methods previously reported were used (Perrier et al., 2004). Feeder free neural induction was carried out as previously described (Chambers et al., 2009). Briefly, hESCs cultures were disaggregated using accutase for 20 minutes, washed using hESCs media and pre-plated on gelatin for 1 hour at 37° C. in the presence of ROCK inhibitor to remove MEFs. The nonadherent hESCs were washed and plated on matrigel at a density of 20,000 cells/cm2 on matrigel (BD) coated dishes in MEF conditioned hESCs media (CM) spiked with 10 ng/mL of FGF-2 and ROCK-inhibitor. The ROCK inhibitor was withdrawn, and hESCs were allowed to expand in CM for 3 days or until they were nearly confluent. The initial differentiation media conditions included knock out serum replacement (KSR) media with […] TGF-b inhibitor (SB431542, Tocris) and 500 ng/mL of Noggin (R&D). Upon day 5 of differentiation, increasing amounts of N2 media (25%, 50%, 75%) was added to the KSR media every two days while maintaining 500 ng/mL of Noggin and TGF-b inhibitor. For FP induction, Sonic C25II was added at 200 ng/ml. In some experiments, DKK-1 (R&D 100 ng/ml) FGF8 (R&D 50 ng/ml), Wnt-1 (Peprotech 50 ng/ml) and Retinoic Acid (R&D 1 uM) were added.\nThe inventors contemplated the use of SIX6 as a putative marker of anterior FP identity. Thus SIX6 status of the hESC derived FP was used to mark respecification in response to known caudalizing agents such as FGF8, Wnt-1, and Retinoic Acid. Each of these caudalizing factors was added in combination with SHH and the resulting tissue was assessed for expression of the FP markers FOXA2 and NETRIN-1, the AN marker BF1, and putative anterior FP marker SIX6. FP generation was found not compromised in the presence of caudalizing factors.\nThe inventors discovered that different factors had varied effects on marker expression (FIG. 20C).\nAs mentioned above, studies had identified different enhancers that directed SHH expression to different A/P region along ventral axis (Jeong et al., 2008). […] In the absence of caudalizing factors (SHH C25II alone), LacZ expression was observed herein following transfection with the SBE2 but not the SBE1 enhancer supporting the hypothesis that hESC derived FP is anterior by default (FIG. 20D). In contrast SBE2 activity was abolished upon treatment with Wnt1 or FGF8 while SBE1 activity was induced under these conditions."}, "[3]": {"test_system": "SIX1::H2B-GFP reporter cells", "assay": "PIP-E6 placode induction in E8/E6 media", "description": "PIP protocol using E8/E6 cell culture media: E8/E6 cell culture media (Essential8™/Essential6™, Nat Methods. 2011 May; 8(5):424-9) comprises the ingredients DMEM/F12, ascorbic acid, selenum, insulin, NaHCO3, transferrin, FGF2 and TGFβ. […] The present example describes a modified PIP protocol that utilizes the BMP deficient E8/E6 media.\nA Six1 knock in GFP reporter cell line (SIX1::H2B-GFP) was developed to monitor when cells have been transformed to a placode fate. (FIGS. 41A-41E). Culturing the reporter cells in E8/E6 media according to the KSR PIP protocol described herein, in which cells were cultured in media comprising the SMAD inhibitors SB431542 and LDN193189, wherein LDN193189 was withdrawn after 2 days of culture, yielded low levels of placode cells after 11 days of culture. (FIGS. 42A-42B). BMP4, which is not present in E8/E6 media, is necessary for cells to differentiate into non-neural ectoderm and placode, as evidenced by expression of the marker AP2. (FIGS. 43A-43C). […] (FIGS. 44A-44C). […] (FIGS. 45A-45B). […] (FIGS. 46 and 47). Although the yield of induced placode cells was low using the PIP-E6 protocol, the induction was highly consistent compared to the KSR PIP protocol. (FIG. 48).\nIn order to make the trigeminal placode fate the default fate when culturing using the PIP-E6 protocol, PIP-E6 was modified by adding CHIR (Wnt activator) to the culture protocol. […] (FIGS. 49A-49B). FIG. 50 depicts the pituitary, lens and trigeminal placodes that can be induced using the PIP-E6 culture protocol."}}, "note": "Where no end group is shown, it is not given here."}
{"molecule": "CN1CCC(c2c[nH]c3ccc(O)cc23)CC1", "note": "[BRL-54443]", "values": [{"measurement": "placode induction", "setting": "SIX1::GFP cells [1]", "result": "promoting placode induction"}]}
{"molecule": "O.c1cnc2c(c1)ccc1cccnc12", "note": "[Phenanthroline monohydrate]", "values": [{"measurement": "placode induction", "setting": "SIX1::GFP cells [1]", "result": "promoting placode induction"}]}
{"molecule": "Cc1c[nH]c(/C=C2\\C(=O)Nc3ccccc32)c1CCC(=O)O", "note": "[SU5402]", "values": [{"measurement": "PITX3 expression", "setting": "pre-placode cells", "result": "significantly induced"}, {"measurement": "TFAP2A expression", "setting": "hESC; day 3-11 of PIP", "result": "maintaining"}, {"measurement": "emergence of SIX1+ clusters", "setting": "hESC; day 3-11 of PIP", "result": "suppressed"}, {"measurement": "placode marker (SIX1) gene expression", "setting": "hESC; day 11", "result": "complete loss"}, {"measurement": "KRT14 mature keratinocyte marker", "setting": "hESC; long-term cultures (day 42-60)", "result": "robust induction"}]}
{"molecule": "FGF2: growth factor", "values": [{"measurement": "number of putative pituitary stem cells (Ki67 and Sox2)", "setting": "SIX1::GFP cells [2]", "result": "may increase"}]}
{"molecule": "somatocrinin: external stimulus causing growth hormone release (YADAIFTNSYRKVLGQLSARKLLQDIMSRQQGESNQERGARARL; ends and bridges not checked; UniProt P01286 32-75, looked up)", "values": [{"measurement": "growth hormone (GH) release", "setting": "SIX1::GFP cells [2]; hormone expressing cells", "result": "released growth hormone (GH)"}]}
{"molecule": "B1", "values": [{"measurement": "SBE1 activity", "setting": "hESC derived FP; SHH enhancer LacZ construct", "result": "induced"}, {"measurement": "SBE2 activity", "setting": "hESC derived FP; SHH enhancer LacZ construct", "result": "abolished"}, {"measurement": "SIX6 expression", "setting": "hESC derived FP; in combination with SHH", "result": "significant reduction"}, {"measurement": "ASCL1 expression", "setting": "hESC; pre-placode cells", "result": "enriches"}, {"measurement": "number of putative pituitary stem cells (Ki67 and Sox2)", "setting": "SIX1::GFP cells [2]", "result": "may increase"}]}
{"molecule": "B2", "values": [{"measurement": "PITX3 expression", "setting": "pre-placode cells", "result": "significantly induced"}, {"measurement": "cell fate induced", "setting": "[3]; 5 ng/ml, with SB431542, withdrawn after 3 days", "result": "placode development"}, {"measurement": "yield of placode precursors", "setting": "[3]; 5 ng/ml, withdrawn after 3 days versus 1 or 2 days, 6 total days", "result": "highest yield of placode precursors"}, {"measurement": "cell fate induced", "setting": "[3]; 20 ng/ml", "result": "induction of non-neural ectoderm"}, {"measurement": "placode fate", "setting": "hESC; high concentrations, starting at day 3 of PIP", "result": "suppressed placode"}, {"measurement": "CDX2 induction", "setting": "hESC; in the presence of SB", "result": "triggered induction of CDX2"}]}
